According to EP4799645A2 (GAN & LEE PHARMACEUTICALS CO., LTD., dated 2026):
Numbered stars: 1 amine (or outer) side, 2 acyl side, 3 side chain; on linkers, the order of the positions; unused ones are H or OH. Side chains are listed from the residue outwards. Ends that are not written are not given here. * marks the point of attachment. C22 diacid = O=C(O)CCCCCCCCCCCCCCCCCCCCC(=O)*; γGlu = O=C(O)[C@H](CCC(=O)[*:2])N[*:1]; AEEA = NCCOCCOCC(=O)O

Molecular target: albumin (HSA) (human, UniProt P02768 25-609)
Sequence (P02768 25-609 limits assumed): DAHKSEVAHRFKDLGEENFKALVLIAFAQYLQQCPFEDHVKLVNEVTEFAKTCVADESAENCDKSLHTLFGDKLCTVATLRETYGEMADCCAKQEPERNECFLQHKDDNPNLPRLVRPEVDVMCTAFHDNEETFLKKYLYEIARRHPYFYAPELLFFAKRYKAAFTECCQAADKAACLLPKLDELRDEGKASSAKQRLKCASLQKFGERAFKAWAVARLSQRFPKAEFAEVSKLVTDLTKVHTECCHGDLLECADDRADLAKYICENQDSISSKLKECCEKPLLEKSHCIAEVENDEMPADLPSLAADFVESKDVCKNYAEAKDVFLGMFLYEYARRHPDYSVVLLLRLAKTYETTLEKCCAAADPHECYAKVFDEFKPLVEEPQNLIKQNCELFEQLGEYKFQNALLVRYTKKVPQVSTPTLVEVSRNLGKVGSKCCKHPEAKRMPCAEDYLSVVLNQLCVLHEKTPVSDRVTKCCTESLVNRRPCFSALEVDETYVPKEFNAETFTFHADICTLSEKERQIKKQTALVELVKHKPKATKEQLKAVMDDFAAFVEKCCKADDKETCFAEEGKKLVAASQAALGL
Assay: shift of receptor-binding IC50 between 0.005% and 2% HSA (indirect)

HGEGTFTSDVSSYLEGQAAK([AEEA-AEEA-γGlu-C22 diacid])EFIAWLVRGRG (also called Compound 10)
binding result: binds
